Among the data in patent publication US20200353030A1 (BAR ILAN UNIVERSITY, published 2020) are global distribution (Da) sedimentation equilibrium, growth cone collapse of DRG explants 10 min after 5 nM SlitN2, without Fab and Kd values, retold here.

B2: hRobo2 receptor ectodomain D4-D5 N426M (residues 311-509 of human Robo2) (receptor)
chain: RAPPQFVVRPRDQIVAQGRTVTFPCETKGNPQPAVFWQKEGSQNLLFPNQPQQPNSRCSVSPTGDLTITNIQRSDAGYYICQALTVAGSILAKAQLEVTDVLTDRPPPIILQGPAMQTLAVDGTALLKCKATGDPLPVISWLKEGFTFPGRDPRATIQEQGTLQIKNLRISDTGTYTCVATSSSGETSWSAVLDVTESG
modifications: additional 655 Da glycosylation found by mass spectroscopy (site not stated)
notes: also called WT hRobo2 D4-5; hRobo2 D4-D5 fragment; not shown: N-terminal FLAG tag of the modified pFastBac (pK503-9) vector; C-terminal hexahistidine tag

Series [1] addresses hRobo2 receptor ectodomain D4-D5 F357R mutant (human) (UniProt Q9HCK4). Briefly: sedimentation equilibrium analytical ultracentrifugation, self-association; total molecular weight of the monomer in the same row 24686 Da; the KD column of this row prints 'monomer'.
Series [2] addresses hRobo2 receptor ectodomain D4-D5 L394R mutant (human) (UniProt Q9HCK4). Briefly: sedimentation equilibrium analytical ultracentrifugation, self-association; total molecular weight of the monomer in the same row 24720 Da; the KD column of this row prints 'monomer'.
In series [3] the target is Robo2 of mouse dorsal root ganglion explants (mouse) (UniProt Q7TPD3). Briefly: cell-based or functional assay.
Robo2 of mouse dorsal root ganglion explants (mouse), sequence (Q7TPD3 22-1470): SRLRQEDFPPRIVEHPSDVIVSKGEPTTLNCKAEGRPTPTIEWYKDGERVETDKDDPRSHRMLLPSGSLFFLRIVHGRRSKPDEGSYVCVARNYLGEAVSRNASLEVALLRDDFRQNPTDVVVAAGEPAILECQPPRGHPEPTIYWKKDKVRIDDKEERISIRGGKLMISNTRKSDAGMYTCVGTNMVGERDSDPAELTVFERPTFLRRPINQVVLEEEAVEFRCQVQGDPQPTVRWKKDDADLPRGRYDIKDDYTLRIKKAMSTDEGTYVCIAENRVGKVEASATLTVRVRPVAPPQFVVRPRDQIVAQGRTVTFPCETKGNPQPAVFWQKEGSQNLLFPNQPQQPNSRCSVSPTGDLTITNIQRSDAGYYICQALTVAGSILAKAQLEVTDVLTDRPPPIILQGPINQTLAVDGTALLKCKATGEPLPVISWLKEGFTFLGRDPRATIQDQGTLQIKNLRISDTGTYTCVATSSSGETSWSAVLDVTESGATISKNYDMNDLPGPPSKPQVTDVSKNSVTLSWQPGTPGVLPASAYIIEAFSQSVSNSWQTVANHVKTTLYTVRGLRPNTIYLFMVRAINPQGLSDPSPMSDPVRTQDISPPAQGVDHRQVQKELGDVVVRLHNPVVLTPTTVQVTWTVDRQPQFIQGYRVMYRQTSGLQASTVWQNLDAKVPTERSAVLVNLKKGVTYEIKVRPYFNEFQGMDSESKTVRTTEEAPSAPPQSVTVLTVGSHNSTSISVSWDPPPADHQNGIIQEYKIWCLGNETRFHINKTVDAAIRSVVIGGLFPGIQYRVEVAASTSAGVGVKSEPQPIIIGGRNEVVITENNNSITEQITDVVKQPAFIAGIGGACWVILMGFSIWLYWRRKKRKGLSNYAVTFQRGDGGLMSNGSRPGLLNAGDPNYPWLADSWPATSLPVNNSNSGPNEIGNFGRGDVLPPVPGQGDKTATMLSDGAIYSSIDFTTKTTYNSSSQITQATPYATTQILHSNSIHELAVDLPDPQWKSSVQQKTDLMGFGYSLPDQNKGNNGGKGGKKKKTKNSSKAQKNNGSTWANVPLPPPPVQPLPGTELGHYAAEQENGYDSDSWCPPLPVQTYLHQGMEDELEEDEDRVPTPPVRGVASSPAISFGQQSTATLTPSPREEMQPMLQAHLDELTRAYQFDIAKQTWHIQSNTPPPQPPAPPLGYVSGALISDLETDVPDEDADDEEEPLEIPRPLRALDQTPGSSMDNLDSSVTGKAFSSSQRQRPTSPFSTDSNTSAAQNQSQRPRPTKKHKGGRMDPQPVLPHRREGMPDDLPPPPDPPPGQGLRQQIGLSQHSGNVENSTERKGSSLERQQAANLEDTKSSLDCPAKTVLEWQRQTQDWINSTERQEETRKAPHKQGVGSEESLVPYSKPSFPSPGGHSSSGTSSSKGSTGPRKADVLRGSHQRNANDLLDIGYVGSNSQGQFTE
Series [4] concerns the target B2. Put plainly: apparent KD; ELISA binding assay, method of the fit not stated. On the technique in general: An ELISA detects its analyte on a solid surface through an enzyme-linked reagent.
Series [5] concerns the molecule itself. Put plainly: SE-AUC, monomer-dimer fit, homodimerization in solution (10, 20 and 30 µM). The protocol:
All the sedimentation equilibrium experiments with hRobo2 receptor ectodomain D4-D5 constructs were performed using an XL-I analytical ultracentrifuge (Beckman-Coulter Inc.), with a UV-visible optics detection system, using an An60Ti rotor and 12-mm double sector centerpieces. Sedimentation curves were recorded and analyzed at 280 nm while spinning at 20° C. at 20,000 rpm in 10, 12, 14, and 20 hour time points, to assure that equilibrium was reached. Three concentrations (10, 20, and 30 μM) of WT hRobo2 receptor ectodomain D4-D5 (N426M) were measured. The F357R and L394R mutants were measured and analyzed in 20 μM. The molecular weight of WT hRobo2 receptor ectodomain D4-D5 fragment (N426M) was determined by mass spectroscopy using the Orbitrap Fusion Lumos with electron transfer dissociation (ETD), with both instrument and chromatography set up especially for the analysis of intact proteins. The recombinant protein includes an N′ terminal FLAG and C′ terminal 6XHis tags. […] The sedimentation coefficient distributions were calculated using SEDFIT and SEDPHAT (Gabrielson et al., 2007; Schuck et al., 2014).
The oligomeric state of hRobo2 receptor ectodomain D4-D5 in solution was determined by sedimentation equilibrium analytical ultracentrifugation (SE-AUC) (FIGS. 8A-8C). […]

Molecule “hRobo2 receptor ectodomain D4-D5 F357R mutant (from UniProt Q9HCK4 311-509)” came in with a global distribution (Da) sedimentation equilibrium in series [1] of 24100 Da.
Take “hRobo2 receptor ectodomain D4-D5 L394R mutant (from UniProt Q9HCK4 311-509)”: the global distribution (Da) sedimentation equilibrium in series [2] came to 24700 Da.
Consider “hSlitN2 (from UniProt O94813 31-1121) (ligand)”, for which, in series [3], the growth cone collapse of DRG explants 10 min after 5 nM SlitN2, without Fab was 60%.

B1: Fab antibody fragment AbD32836.1 (Fab, V domains shown)
VH: EVQLVESGGGLVKPGGSLRLSCAASGFTFSSYALSWVRQAPGKGLEWVGHIKSKTDGGATEYAAPVKGRFTISRDDSKNTLYLQMNSLKTEDTAVYYCARSYSEYIPLYAFAVWGQGTLVTVSS
VL: DIVLTQPPSVSGAPGQRVTISCSGSSSNIGSKYVSWYQQLPGTAPKLLIYYTSQRPSGVPDRFSGSKSGTSASLAITGLQAEDEADYYCYAWDSTSTSTVFGGGTKLTVLG
notes: HuCAL phage display Fab from BioRad AbD Serotec, raised against hRobo2 D4-5; also called Fab AbD32836.1; Fab #AbD32836.1
In the case of B1, the Kd in series [4] amounted to 180 nM.
As for B2, in series [5], the Kd was 16.9 µM.
